The Immune Epitope Database (IEDB)
Values belong to the sequence of their own block, whether it stands above or below them.

Tests used:
HLA-B*35:01 = test: IEDB peptide-MHC binding, cellular MHC/competitive/fluorescence; ≥ and ≤ were set here for values at or beyond the usual limits of such assays; settings: source organism: Mycobacterium tuberculosis H37Rv
HLA-A*02:50 = test: IEDB peptide-MHC binding, purified MHC/competitive/fluorescence; filed as Kd, often an IC50 or EC50 that approximates it; ≥ and ≤ were set here for values at or beyond the usual limits of such assays
HLA-A*02:16 [1] = test: IEDB peptide-MHC binding, purified MHC/direct/fluorescence; filed as Kd, often an IC50 or EC50 that approximates it; ≥ and ≤ were set here for values at or beyond the usual limits of such assays
HLA-A*02:01 [2] = test: as above
HLA-B*58:01 = test: as above; settings: source organism: Salmonella enterica
HLA-B*08:01 = test: as above; settings: source organism: Salmonella enterica subsp. enterica serovar Typhimurium str. LT2
HLA-A*02:11 [3] = test: as above
HLA-B*07:02 = test: as above; settings: source organism: Salmonella enterica
HLA-A*02:06 [4] = test: as above
HLA-B*44:02 = test: as above; settings: source organism: Salmonella enterica
HLA-B*46:01 = test: as above
HLA-A*02:19 [5] = test: as above
HLA-B*27:05 [6] = test: as above
HLA-A*03:01 = test: as above
HLA-B*15:01 = test: as above; settings: source organism: Salmonella enterica
HLA-B*40:01 = test: as above; settings: source organism: Salmonella enterica
HLA-A*02:12 [7] = test: as above
HLA-A*69:01 [8] = test: as above; settings: source organism: Entamoeba histolytica HM-1:IMSS
HLA-B*27:03 = test: as above; settings: source organism: Entamoeba histolytica HM-1:IMSS
HLA-A*26:01 = test: as above; settings: source organism: Entamoeba histolytica HM-1:IMSS
HLA-B*15:17 = test: as above; settings: source organism: Entamoeba histolytica HM-1:IMSS
HLA-B*51:01 = test: as above; settings: source organism: Entamoeba histolytica HM-1:IMSS
HLA-B*57:01 = test: as above; settings: source organism: Entamoeba histolytica HM-1:IMSS
HLA-B*39:01 = test: as above; settings: source organism: Entamoeba histolytica HM-1:IMSS
HLA-A*24:03 = test: as above; settings: source organism: Entamoeba histolytica HM-1:IMSS
HLA-A*29:02 = test: as above; settings: source organism: Entamoeba histolytica HM-1:IMSS
HLA-A*02:16 [9] = test: IEDB peptide-MHC binding, purified MHC/competitive/fluorescence; filed as Kd, often an IC50 or EC50 that approximates it; ≥ and ≤ were set here for values at or beyond the usual limits of such assays; settings: source organism: Encephalitozoon cuniculi GB-M1
HLA-A*69:01 [10] = test: as above; settings: source organism: Encephalitozoon cuniculi GB-M1
HLA-A*02:01 [11] = test: as above; settings: source organism: Encephalitozoon cuniculi GB-M1
HLA-A*02:11 [12] = test: as above; settings: source organism: Encephalitozoon cuniculi GB-M1
HLA-A*02:06 [13] = test: as above; settings: source organism: Encephalitozoon cuniculi GB-M1
HLA-A*02:03 = test: as above; settings: source organism: Encephalitozoon cuniculi GB-M1
HLA-A*02:19 [14] = test: as above; settings: source organism: Encephalitozoon cuniculi GB-M1
HLA-A*02:12 [15] = test: as above; settings: source organism: Encephalitozoon cuniculi GB-M1
HLA-B*27:05 [16] = test: IEDB peptide-MHC binding, purified MHC/competitive/fluorescence; ≥ and ≤ were set here for values at or beyond the usual limits of such assays; settings: source organism: hepatitis C virus genotype 1a
HLA-B*15:02 = test: IEDB peptide-MHC binding, purified MHC/competitive/fluorescence; filed as Kd, often an IC50 or EC50 that approximates it; ≥ and ≤ were set here for values at or beyond the usual limits of such assays
HLA-B*45:06 = test: as above; settings: source organism: Bacillus anthracis str. A2012
HLA-C*14:02 = test: as above; settings: source organism: Bacillus anthracis str. A2012
HLA-B*83:01 = test: as above; settings: source organism: Bacillus anthracis str. A2012
HLA-B*27:20 = test: as above; settings: source organism: Bacillus anthracis str. A2012
HLA-B*15:42 = test: as above; settings: source organism: Bacillus anthracis str. A2012
HLA-C*15:02 = test: IEDB peptide-MHC binding, purified MHC/direct/fluorescence; filed as Kd, often an IC50 or EC50 that approximates it; ≥ and ≤ were set here for values at or beyond the usual limits of such assays; settings: source organism: Bacillus anthracis str. A2012
HLA-C*05:01 = test: as above; settings: source organism: Bacillus anthracis str. A2012
HLA-C*07:02 = test: as above; settings: source organism: Bacillus anthracis str. A2012
HLA-B*73:01 = test: as above; settings: source organism: Giardia lamblia ATCC 50803
HLA-B*48:01 = test: as above; settings: source organism: Giardia lamblia ATCC 50803
[17] = source organism: Salmonella enterica subsp. enterica serovar Typhimurium str. LT2
[18] = source organism: Salmonella enterica
[19] = source organism: Entamoeba histolytica HM-1:IMSS

Sequence: LPAKFLEGF
IC50 (HLA-B*35:01): 700 nM

Sequence: WTLETLPRV
Kd (HLA-A*02:50; source organism: Salmonella enterica subsp. enterica serovar Typhi): 9.4 nM | Kd (HLA-A*02:16 [1]; [17]): ≤ 1 nM | Kd (HLA-A*02:01 [2]; [18]): 28.7 nM | Kd (HLA-B*58:01): ≥ 20000 nM | Kd (HLA-B*08:01): ≥ 20000 nM | Kd (HLA-A*02:11 [3]; [17]): ≤ 1 nM | Kd (HLA-B*07:02): ≥ 20000 nM | Kd (HLA-A*02:06 [4]; [17]): ≤ 1 nM | Kd (HLA-B*44:02): ≥ 20000 nM | Kd (HLA-B*46:01; [18]): ≥ 20000 nM | Kd (HLA-A*02:19 [5]; [17]): 4 nM | Kd (HLA-B*27:05 [6]; [18]): ≥ 20000 nM | Kd (HLA-A*03:01; [18]): ≥ 20000 nM | Kd (HLA-B*15:01): ≥ 20000 nM | Kd (HLA-B*40:01): ≥ 20000 nM | Kd (HLA-A*02:12 [7]; [17]): ≤ 1 nM

Sequence: RQRHYFDSA
Kd (HLA-A*02:16 [1]; [19]): ≥ 20000 nM | Kd (HLA-A*69:01 [8]): ≥ 20000 nM | Kd (HLA-A*02:01 [2]; [19]): 7000 nM | Kd (HLA-B*27:03): ≥ 20000 nM | Kd (HLA-A*26:01): ≥ 20000 nM | Kd (HLA-B*15:17): ≥ 20000 nM | Kd (HLA-A*02:11 [3]; [19]): ≥ 20000 nM | Kd (HLA-A*02:06 [4]; [19]): 4 nM | Kd (HLA-B*51:01): ≥ 20000 nM | Kd (HLA-B*46:01; [19]): ≥ 20000 nM | Kd (HLA-B*57:01): ≥ 20000 nM | Kd (HLA-A*02:19 [5]; [19]): ≥ 20000 nM | Kd (HLA-A*03:01; [19]): ≥ 20000 nM | Kd (HLA-B*39:01): ≥ 20000 nM | Kd (HLA-A*24:03): ≥ 20000 nM | Kd (HLA-A*29:02): ≥ 20000 nM | Kd (HLA-A*02:12 [7]; [19]): ≥ 20000 nM

Kd (HLA-A*02:16 [9]): ≤ 1 nM | Kd (HLA-A*69:01 [10]): 423 nM | Kd (HLA-A*02:01 [11]): 2.5 nM | Kd (HLA-A*02:11 [12]): ≤ 1 nM | Kd (HLA-A*02:06 [13]): ≤ 1 nM | Kd (HLA-A*02:03): 1.6 nM | Kd (HLA-A*02:19 [14]): 486 nM | Kd (HLA-A*02:50; source organism: Encephalitozoon cuniculi GB-M1): 0.3 nM | Kd (HLA-A*02:12 [15]): 122 nM
Sequence: GVYGGLCLA

Sequence: GRAVICGKY
IC50 (HLA-B*27:05 [16]): 32 nM

Sequence: WMYYPRSPV
Kd (HLA-B*15:02; source organism: Bacillus anthracis str. A2012): 391 nM | Kd (HLA-B*45:06): ≥ 5000 nM | Kd (HLA-C*14:02): 6.8 nM | Kd (HLA-B*83:01): ≥ 5000 nM | Kd (HLA-B*27:20): 0.2 nM | Kd (HLA-B*15:42): ≥ 5000 nM | Kd (HLA-C*15:02): ≥ 20000 nM | Kd (HLA-C*05:01): ≥ 20000 nM | Kd (HLA-C*07:02): 667 nM

Sequence: YRYKMPVME
Kd (HLA-B*73:01): 1620 nM | Kd (HLA-B*27:05 [6]; source organism: Giardia lamblia ATCC 50803): 124 nM | Kd (HLA-B*48:01): ≥ 20000 nM

Sequence: GMRVLGTNY
Kd (HLA-B*15:02; source organism: Vibrio cholerae 2740-80): 229 nM
